Results from PMC3903306 (Biochemistry, 2012).

Biological target: the molecule itself
Test: cross-linking

B1: IpgC (natural protein)
chain: MSLNITENESISTAVIDAINSGATLKDINAIPDDMMDDIYSYAYDFYNKGRIEEAEVFFRFLCIYDFYNVDYIMGLAAIYQIKEQFQQAADLYAVAFALGKNDYTPVFHTGQCQLRLKAPLKAKECFELVIQHSNDEKLKIKAQSYLDAIQDIKE
stoichiometry N: 2
